B1: GST-Tin2 (wild-type Tin2 with glutathione-S-transferase linked to the N-terminus) (other)
chain: MATPLVAGPAALRFAAAASWQVVRGRCVEHFPRVLEFLRSLRAVAPGLVRYRHHERLCMGLKAKVVVELILQGRPWAQVLKALNHHFPESGPIVRDPKATKQDLRKILEAQETFYQQVKQLSEAPVDLASKLQELEQEYGEPFLAAMEKLLFEYLCQLEKALPTPQAQQLQDVLSWMQPGVSITSSLAWRQYGVDMGWLLPECSVTDSVNLAEPMEQNPPQQQRLALHNPLPKAKPGTHLPQGPSSRTHPEPLAGRHFNLAPLGRRRVQSQWASTRGGHKERPTVMLFPFRNLGSPTQVISNPESKEEHAIYTADLAMGTRAPSNGKYKGPYQTLGGRALKENPVDLPATEQKE
notes: also called Wild-type GST-Tin2; WT GST-Tin2; not shown: glutathione-S-transferase (GST) encoded by vector pGex4X-1 (Pharmacia), linked to the N-terminus; linker residues not gi
B2: Myc-Tin2 (Tin2 with a 13 aa c-Myc epitope at the N-terminus) (other, not shown: small tags and cut ends)
chain: B1 chain
notes: Made by in vitro translation (rabbit reticulocyte lysate, 35S-methionine) or expressed in HT1080 cells from a retrovirus
B3: [TTAGGG]6 probes with flanks (6X-Tel 178 bp, Bi-6X-Tel 126 bp) (dsDNA)
DNA 1: TTAGGGTTAGGGTTAGGGTTAGGGTTAGGGTTAGGG
DNA 2: CCCTAACCCTAACCCTAACCCTAACCCTAACCCTAA
B4: GST-Tin2-12 (Tin2 with N-terminal deletion of aa 1-120, fused to GST) (other)
chain: LSEAPVDLASKLQELEQEYGEPFLAAMEKLLFEYLCQLEKALPTPQAQQLQDVLSWMQPGVSITSSLAWRQYGVDMGWLLPECSVTDSVNLAEPMEQNPPQQQRLALHNPLPKAKPGTHLPQGPSSRTHPEPLAGRHFNLAPLGRRRVQSQWASTRGGHKERPTVMLFPFRNLGSPTQVISNPESKEEHAIYTADLAMGTRAPSNGKYKGPYQTLGGRALKENPVDLPATEQKE
notes: not shown: GST carrier at the N end (vector pGex4X-1, Pharmacia) and its vector linker
B5: GST-Tin2-14 (Tin2 with C-terminal deletion of aa 276-354, fused to GST) (other)
chain: MATPLVAGPAALRFAAAASWQVVRGRCVEHFPRVLEFLRSLRAVAPGLVRYRHHERLCMGLKAKVVVELILQGRPWAQVLKALNHHFPESGPIVRDPKATKQDLRKILEAQETFYQQVKQLSEAPVDLASKLQELEQEYGEPFLAAMEKLLFEYLCQLEKALPTPQAQQLQDVLSWMQPGVSITSSLAWRQYGVDMGWLLPECSVTDSVNLAEPMEQNPPQQQRLALHNPLPKAKPGTHLPQGPSSRTHPEPLAGRHFNLAPLGRRRVQSQWAST
notes: as for B4
B6: [TTAGGG]13 double-stranded telomeric probe (dsDNA)
DNA 1: TTAGGGTTAGGGTTAGGGTTAGGGTTAGGGTTAGGGTTAGGGTTAGGGTTAGGGTTAGGGTTAGGGTTAGGGTTAGGG
DNA 2: CCCTAACCCTAACCCTAACCCTAACCCTAACCCTAACCCTAACCCTAACCCTAACCCTAACCCTAACCCTAACCCTAA
B7: GST-Tin2-15 (N-terminal fragment aa 1-196 of Tin2, fused to GST) (other)
chain: MATPLVAGPAALRFAAAASWQVVRGRCVEHFPRVLEFLRSLRAVAPGLVRYRHHERLCMGLKAKVVVELILQGRPWAQVLKALNHHFPESGPIVRDPKATKQDLRKILEAQETFYQQVKQLSEAPVDLASKLQELEQEYGEPFLAAMEKLLFEYLCQLEKALPTPQAQQLQDVLSWMQPGVSITSSLAWRQYGVDM
notes: not shown: glutathione-S-transferase (GST) encoded by vector pGex4X-1 (Pharmacia)

Columns and labels:
[1] = biological target: T1, HA-Trf1 (Trf1 with a 10 aa hemagglutinin epitope at the N-terminus) (human, UniProt P54274 1-439); test: EMSA with nuclear extract of HA-Trf1 expressing cells and telomeric DNA probe
T1 construct: In vitro translated (major 60 kD and minor about 40 kD products), or expressed in HT1080 cells
T1 sequence (looked up): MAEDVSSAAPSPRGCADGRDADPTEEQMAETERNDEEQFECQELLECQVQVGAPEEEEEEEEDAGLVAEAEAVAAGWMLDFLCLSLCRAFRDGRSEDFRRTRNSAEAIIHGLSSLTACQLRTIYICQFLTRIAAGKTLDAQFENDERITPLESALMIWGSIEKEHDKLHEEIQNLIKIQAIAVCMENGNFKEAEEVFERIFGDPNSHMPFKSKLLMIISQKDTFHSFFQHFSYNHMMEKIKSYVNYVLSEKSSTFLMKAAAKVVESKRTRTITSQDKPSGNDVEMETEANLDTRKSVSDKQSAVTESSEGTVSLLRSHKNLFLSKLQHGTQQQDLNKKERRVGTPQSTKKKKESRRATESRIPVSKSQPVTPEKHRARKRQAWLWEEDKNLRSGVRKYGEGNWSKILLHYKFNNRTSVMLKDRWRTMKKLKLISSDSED

[2] = biological target: B2; test: co-immunoprecipitation with anti-GST of in vitro translated radiolabeled protein, SDS-PAGE
[3] = biological target: T2, HA-tagged hTERT protein (human telomerase catalytic subunit) (human, UniProt O14746 1-1132); test: co-immunoprecipitation from cells
T2 construct: Transiently expressed in Myc-Tin2-expressing cells; not shown: HA tag

[4] = biological target: T1, HA-Trf1 (Trf1 with a 10 aa …); test: co-immunoprecipitation of mixed in vitro translation products, SDS-PAGE
[5] = biological target: T3, Trf1 + Tin2 complex (human, UniProt P54274;Q9BSI4-2 P54274:1-439,Q9BSI4-2:1-354); test: pulldown; probe pairing (6X-Tel/labeled Bi-6X-Tel) over Trf1 alone; 4-5 fold with unlabeled Bi-6X-Tel; abolished by excess unlabeled [TTAGGG]7; conditions: tags: 6his on both, baculovirus/Sf9; chain copies: 2 Trf1 + 2 Tin2 in TT-AA (stated as likely); label: 32P (6X-Tel); 5' biotin (Bi-6X-Tel)
Protocol: The 178 bp probe (6X-Tel) and the 126 bp probe (Bi-6X-Tel) were used either labeled or unlabeled. The probes were mixed together, incubated with purified 6his-proteins under optimized conditions, and Bi-6X-Tel probes were collected on streptavidin-agarose beads, as described below. […] Released labeled probes were identified by PAGE.
(§1) 6his-Trf1 (150 ng) and increasing amounts of 6his-Tin2 were incubated with a double stranded TTAGGG_6 probe, and protein-DNA complexes were analyzed by EMSA. Probes containing [TTAGGG]_6 and flanking sequences were synthesized by PCR. 6X-Tel was 178 bp, and labeled with ^32P (*). Bi-6X-Tel was 126 bp, biotinylated at a 5' end, and either labeled (*) or unlabeled. The 6X-Tel probe was incubated with labeled or unlabeled Bi-6X-Tel probe, and 6his-Trf1 (150 ng), 6his-Tin2 (60 ng), GST (100 ng), GST-Tin2–13 (100 ng) and/or 100 fold excess unlabeled [TTAGGG]_7, followed by incubation with streptavidin-agarose beads. The beads were collected, and components released and analyzed by PAGE. Signals were quantified using a phosphorimager and ImageQuant. Reaction mixtures were analyzed by EMSA.
In the absence of protein or presence of Tin 2 alone, virtually no 6X-Tel probe, and very little labeled Bi-6X-Tel was released. […] Trf1 alone increased the amount of both 6X-Tel and labeled Bi-6X-Tel that were released. […]

[6] = biological target: T4, Trf1 (6his-Trf1) (human, UniProt P54274 P54274:1-439); test: EMSA; TT plus minor TT**, TT*** and small amount of TT-AAX; Trf1 alone induces probe-probe pairing; conditions: tags: 6his, baculovirus/Sf9; chain copies: 2 (homodimer, stated); label: 32P (6X-Tel); 5' biotin (Bi-6X-Tel)
Protocol: as §1
Under these optimized conditions, Trf1 alone formed a small amount of TT-AAX which was greatly stimulated by Tin2. Also under these conditions, Trf1 alone formed two minor complexes that are likely due to two (TT) and three (TT*) Trf1 homodimers loaded onto the probe (Bianchi et al., 1997). The Tin2–13 mutant supershifted all three TT complexes, as expected from its ability to bind Tfr1.

[7] = biological target: T4, Trf1 (6his-Trf1); test: EMSA; single TT complex; probe not restated, taken as [TTAGGG]13; conditions: tags: 6his, baculovirus/Sf9; chain copies: 2 (homodimer, stated)
Protocol: (§2) Nuclear extracts were prepared as described (Dimri et al., 1994), and dialyzed against 20 mM HEPES, pH 7.9, 100 mM KCl, 0.5 mM DTT, 0.5 mM PMSF. [TTAGGG]_6 and $[TTAGGG]13$ in pBluescript were excised, labeled using Klenow or PCR and gel purified. EMSA was performed as described (Zhong et al., 1992) in 20 ul containing 0–20 ug GST or GST-fusion proteins, 6–8 ug nuclear extract protein or 5 ul in vitro translation reaction, using a 30 min incubation at room temperature and 5% PAGE run with 1× Tris-borate-EDTA buffer.
(§3) To determine the nature of TT-AAX, DNA complexes formed by purified proteins were examined. 6his-tagged Trf1 and Tin2 were produced and purified from baculovirus-infected cells. […] Moreover, 6his-Tin2, added in increasing amounts to 6his-Trf1 and probe, shifted all the TT to TT-AAX . Since 6his-Tin2 formed more TT-AAX than GST-Tin2, the GST moiety may reduce TT-AAX formation or stability. Nuclear extract had only a small effect on TT-AAX formation. […] Addition of 6his-Trf1 produced TT, and 6his-Tin2 shifted all the TT to TT-AAX. However, somewhat more TT-AAX was formed in the presence of nuclear extract than its absence. Thus, TT-AAX required only Trf1, Tin2 and telomeric DNA, but other nuclear proteins might enhance its formation or stability.

[8] = biological target: Trf1 (HA-Trf1, in vitro translated) (human, UniProt P54274 P54274:1-439); test: EMSA; specific protein-DNA complex TT
Protocol: as §2
This was true whether Tin2 was translated in vitro, purified from *E. coli* as a GST-fusion protein, or purified from baculovirus infected insect cells as a 6-histidine (6his)-tagged protein. […] In contrast, Trf1, whether translated in vitro or in nuclear extracts from HA-Trf1 overexpressing cells, formed a specific protein-DNA complex (Chong et al., 1995). Since Trf1 binds DNA as a homodimer (Bianchi et al., 1997), this complex was designated TT. To determine whether Tin2 interacts with this complex, WT or mutant GST-Tin2 proteins were added to nuclear extracts from HA-Trf1 expressing cells.

[9] = biological target: T3, Trf1 + Tin2 complex; test: EMSA; all TT shifted to TT-AAX; nuclear extract slightly enhances; conditions: tags: 6his on both, baculovirus/Sf9; chain copies: 2 Trf1 + 2 Tin2 in TT-AA (stated as likely)
Protocol: as §2, §3

T2 sequence (O14746 whole entry): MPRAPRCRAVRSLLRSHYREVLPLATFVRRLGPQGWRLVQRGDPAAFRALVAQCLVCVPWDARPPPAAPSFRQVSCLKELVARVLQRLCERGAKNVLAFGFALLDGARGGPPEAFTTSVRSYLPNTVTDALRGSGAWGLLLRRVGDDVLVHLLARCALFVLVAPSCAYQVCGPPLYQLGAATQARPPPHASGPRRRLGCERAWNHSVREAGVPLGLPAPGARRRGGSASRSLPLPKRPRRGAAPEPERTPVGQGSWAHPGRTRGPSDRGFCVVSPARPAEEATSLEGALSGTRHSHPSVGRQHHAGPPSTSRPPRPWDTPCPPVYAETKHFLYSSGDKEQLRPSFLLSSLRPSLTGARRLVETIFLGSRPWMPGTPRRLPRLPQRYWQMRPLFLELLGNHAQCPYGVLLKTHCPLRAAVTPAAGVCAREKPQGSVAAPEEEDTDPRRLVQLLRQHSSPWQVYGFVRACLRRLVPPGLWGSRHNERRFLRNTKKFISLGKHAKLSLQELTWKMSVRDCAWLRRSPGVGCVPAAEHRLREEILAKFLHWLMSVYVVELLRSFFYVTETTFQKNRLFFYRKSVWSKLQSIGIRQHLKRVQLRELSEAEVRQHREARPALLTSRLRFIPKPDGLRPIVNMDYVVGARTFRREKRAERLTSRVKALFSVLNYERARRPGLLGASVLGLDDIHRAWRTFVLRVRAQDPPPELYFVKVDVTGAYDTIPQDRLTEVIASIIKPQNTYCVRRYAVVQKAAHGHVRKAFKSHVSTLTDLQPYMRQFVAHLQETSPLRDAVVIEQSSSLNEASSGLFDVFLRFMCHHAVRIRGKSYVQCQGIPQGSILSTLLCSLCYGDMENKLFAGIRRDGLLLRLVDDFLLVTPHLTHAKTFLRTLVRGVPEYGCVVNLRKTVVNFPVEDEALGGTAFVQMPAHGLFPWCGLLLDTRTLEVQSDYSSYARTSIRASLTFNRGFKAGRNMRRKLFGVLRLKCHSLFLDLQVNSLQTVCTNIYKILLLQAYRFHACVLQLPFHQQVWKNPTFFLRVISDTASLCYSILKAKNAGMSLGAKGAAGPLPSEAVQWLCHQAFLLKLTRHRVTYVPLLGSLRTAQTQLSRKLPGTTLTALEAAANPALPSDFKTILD

## B1
[1]
  binding result: binds
[2]
  binding result: no binding

## B2
[3]
  binding result: no binding
[4]
  binding result: binds

## B3
[5]
  binding result: binds
[6]
  binding result: binds

## B4
[1]
  binding result: binds

## B5
[1]
  binding result: binds

## B6
[7]
  binding result: binds
[8]
  binding result: binds
[9]
  binding result: binds

## B7
[1]
  binding result: no binding

Source: patent US6409648, “Polynucleotides encoding TRF1 binding proteins” (The Regents of the University of California)
